One assay concerns the target human glucagon receptor (human, UniProt P47871). In words: cell-based or functional assay.
For a further assay, the target named is human GLP-1 receptor (human, UniProt P43220). In words: cell-based or functional assay.

Starred links: 1 amine or outer side, 2 acyl side, 3 side chain; linkers in the order of their positions; H or OH if unused. Non-standard residues stand in square brackets, D forms with d. Groups on a side chain read outwards from the residue. Primed or numbered codes have the meaning given here. No end group written: not given here. *: point of attachment. C18 diacid = O=C(O)CCCCCCCCCCCCCCCCC(=O)*; Heptadecanoyl = CCCCCCCCCCCCCCCCC(=O)*; γGlu = O=C(O)[C@H](CCC(=O)[*:2])N[*:1]; Stearoyl = CCCCCCCCCCCCCCCCCC(=O)*; Palmitoyl = CCCCCCCCCCCCCCCC(=O)*; αMeF = C[C@](N)(Cc1ccccc1)C(=O)O; (PEG)2 = polyethylene glycol 2; PEG2′ = polyethylene glycol 2; AEEA = NCCOCCOCC(=O)O; Aib = CC(C)(N)C(=O)O

With HSQGS[αMeF]TSDVSK[αMeF]LDSKAAQD[αMeF]VQ[Aib]LEAGG-NH2 (not fully specified (residue 17)) [Peptide 80], the “cAMP production, hGluc-R EC50 (pM)” value in the assay with human glucagon receptor is 9.18 pM. The “cAMP production, hGLP-1R EC50 (pM)” value in the assay with human GLP-1 receptor stood at 1.03 pM.

For the molecule HSQGS[αMeF]TSDVSK[Aib]LDSK([(PEG)2-(PEG)2-γGlu-γGlu-Stearoyl])AAQD[αMeF]VQ[Aib]IAN-NH2 [Peptide 100], in the assay with human glucagon receptor, the “cAMP production, hGluc-R EC50 (pM)” value was found to be 40.5 pM. Besides, the “cAMP production, hGLP-1R EC50 (pM)” value with human GLP-1 receptor was 0.258 pM.

HSQGS[αMeF]TSDVSK[Aib]LDSK([(PEG)2-(PEG)2-γGlu-γGlu-Palmitoyl])AAQD[αMeF]VQ[Aib]IIE-NH2 [Peptide 99]: in the assay with human glucagon receptor, the “cAMP production, hGluc-R EC50 (pM)” value came to 33.2 pM. Besides, the “cAMP production, hGLP-1R EC50 (pM)” value with human GLP-1 receptor is 2.21 pM.

For the molecule HSQGS[αMeF]TSDVSK[αMeF]LDSK([(PEG)2-(PEG)2-γGlu-γGlu-Heptadecanoyl])AAQD[αMeF]VQ[Aib]IAN-NH2 [Peptide 88], the “cAMP production, hGluc-R EC50 (pM)” value in the assay with human glucagon receptor is 6.47 pM. The “cAMP production, hGLP-1R EC50 (pM)” value in the assay with human GLP-1 receptor was 1.04 pM.

B1: Peptide 12 (peptide)
peptide: H[Aib]HGS[αMeF]TSDVSK[αMeF]LDSK([AEEA-AEEA-γGlu-C18 diacid])AARDFVQ[Aib]IANT-NH2
modifications: N-terminus assumed
SMILES: CC[C@H](C)[C@H](NC(=O)C(C)(C)NC(=O)[C@H](CCC(N)=O)NC(=O)[C@@H](NC(=O)[C@H](Cc1ccccc1)NC(=O)[C@H](CC(=O)O)NC(=O)[C@H](CCCNC(=N)N)NC(=O)[C@H](C)NC(=O)[C@H](C)NC(=O)[C@H](CCCCNC(=O)COCCOCCNC(=O)COCCOCCNC(=O)CC[C@H](NC(=O)CCCCCCCCCCCCCCCCC(=O)O)C(=O)O)NC(=O)[C@H](CO)NC(=O)[C@H](CC(=O)O)NC(=O)[C@H](CC(C)C)NC(=O)[C@](C)(Cc1ccccc1)NC(=O)[C@H](CCCCN)NC(=O)[C@H](CO)NC(=O)[C@@H](NC(=O)[C@H](CC(=O)O)NC(=O)[C@H](CO)NC(=O)[C@@H](NC(=O)[C@](C)(Cc1ccccc1)NC(=O)[C@H](CO)NC(=O)CNC(=O)[C@H](Cc1c[nH]cn1)NC(=O)C(C)(C)NC(=O)[C@@H](N)Cc1c[nH]cn1)[C@@H](C)O)C(C)C)C(C)C)C(=O)N[C@@H](C)C(=O)N[C@@H](CC(N)=O)C(=O)N[C@H](C(N)=O)[C@@H](C)O
As to B1, the “cAMP production, hGluc-R EC50 (pM)” value with human glucagon receptor turned out to be 47.7 pM. Further, the “cAMP production, hGLP-1R EC50 (pM)” value with human GLP-1 receptor worked out at 14.5 pM.

Take HSQGS[αMeF]TSDVSK[αMeF]LDSK([PEG2′-PEG2′-γGlu-γGlu-Palmitoyl])AAQD[αMeF]VQ[Aib]IAN-NH2 (not fully specified) [Peptide 89]: the “cAMP production, hGluc-R EC50 (pM)” value in the assay with human glucagon receptor turned out to be 15.3 pM. Further, the “cAMP production, hGLP-1R EC50 (pM)” value with human GLP-1 receptor was 3.77 pM.

On to HSQGS[αMeF]TSDVSK[αMeF]LDSK([(PEG)2-(PEG)2-γGlu-γGlu-Palmitoyl])AAQD[αMeF]VQ[Aib]IAN-NH2 [Peptide 87], for which the “cAMP production, hGluc-R EC50 (pM)” value in the assay with human glucagon receptor was 8.46 pM. In the assay with human GLP-1 receptor, the “cAMP production, hGLP-1R EC50 (pM)” value was determined as 1.29 pM.

In the case of H[Aib]HGS[αMeF]TSDVSK[αMeF]LDSK([AEEA-AEEA-γGlu-C18 diacid])AAQDFVQ[Aib]IANT-NH2 [Peptide 11], the “cAMP production, hGluc-R EC50 (pM)” value with human glucagon receptor was determined as 118 pM. For the same molecule, the “cAMP production, hGLP-1R EC50 (pM)” value with human GLP-1 receptor turned out to be 157 pM.

These data come from patent US12630600B2 (MEDIMMUNE LIMITED, priority 2022, dated 2026).
